# Assay results taken from publication PMC5100602, “RNA regulators responding to ribosomal protein S15 are frequent in sequence space”.
# B1: 11-4 (structured_RNA)
# RNA: UGCGUAACGUACACUGAACAAUCCCAGCGCUCUAUGGAAUCUGCAUCAUCUAUUCUUUGGAGUUUAAAUGUCUCUAAGUACUGAAGCAACAGCU
# B2: 11-1-M2 (structured_RNA)
# RNA: UUGGUAACGUACACUUCCUUCGCUUAUUCGGAGUAGAUCACGUGAUCAUUCUGUAUGCUUUGGAGUUUUAAAAUGUCUCUAAGUACUGAAGCAACAGCU
# B3: 11-1-M3 (structured_RNA)
# RNA: UUGGUAACCGACACUUCCUUCGCUUAUUCGGAGUAGAUCACGUGAUCAUUCUGUAUGCUUUGGAGUUUUAAAAUGUCUCUAAGUACUGAAGCAACAGCU
# B4: 11-1 (structured_RNA)
# RNA: UGCGUAACGUACACUUCCUUCGCUUAUUCGGAGUAGAUCACGUGAUCAUUCUGUAUGCUUUGGAGUUUUAAAAUGUCUCUAAGUACUGAAGCAACAGCU
# B5: 11-1-M8 (structured_RNA)
# RNA: UGCGUAACGUACACUUCCUUCGCUUAUUCGGAGUAGAUCACGUGAUCAUUCUGUAUGCUUUGGUCUUUUAAAAUGUCUCUAAGUACUGAAGCAACAGCU
# B6: 11-2 (structured_RNA)
# RNA: UGCGUAACGUACACUCCCUACUCGUGGAUUGGACUCUAUAAUAGAUCAUUCUAUAUACUGUGGAGCUUAAAAUGUCUCUAAGUACUGAAGCAACAGCU
# B7: 11-1-M4 (structured_RNA)
# RNA: UGCGUAACGUACACUUCCUUCGCUUAUUCGGAGUAGAUCACGUGAUCAUUCUGUAUGCUUUGGAG
# B8: 11-5 (structured_RNA)
# RNA: UGCGUAACGUACACUAAAGACGGAAGGCCAAAACCUAUGCUUACCCUUUACUUUGGAGUUUUAAAAUGUCUCUAAGUACUGAAGCAACAGCU
# B9: 11-6 (structured_RNA)
# RNA: UGCGUAACGUACACUGAAGACCGCGAACUACAAACGUAACUCGGUUCAUUCUAUAUACUUUAGAGUUUUAAAAUGUCUCUAAGUACUGAAGCAACAGCU
# B10: 11-3 (structured_RNA)
# RNA: UGCGUAACGUACACUCCGAUGUUACCCGCGCGAGGUCAUUGGUACUCAAUCUAUAUACUUUGGAGUUUUAAAUGUCUCUAAGUACUGAAGCAACAGCU
# Key:
# [1] = biological target: T1, Gk-S15 (ribosomal protein S15) (Geobacillus kaustophilus, UniProt Q5L0I3 1-89); test: filter binding; Fmax 21%; SELEX Binding Buffer A: 50 mM Tris/acetate pH 7.5, 20 mM Mg-acetate, 270 mM KCl, 5 mM DTT, 0.02% BSA, 25 C, 30 min; filter binding (nitrocellulose/nylon) as previously described; settings: protein: recombinant; tags: expressed from pET-HT; label: 5'-32P
# [2] = biological target: T1, Gk-S15 (ribosomal protein S15); test: filter binding; Fmax 0.56; text says abolished; SELEX Binding Buffer A: 50 mM Tris/acetate pH 7.5, 20 mM Mg-acetate, 270 mM KCl, 5 mM DTT, 0.02% BSA, 25 C, 30 min; filter binding (nitrocellulose/nylon) as previously described; settings: protein: recombinant; tags: expressed from pET-HT; label: 5'-32P; H1 disrupted
# [3] = biological target: T1, Gk-S15 (ribosomal protein S15); test: filter binding; Fmax 0.85; SELEX Binding Buffer A: 50 mM Tris/acetate pH 7.5, 20 mM Mg-acetate, 270 mM KCl, 5 mM DTT, 0.02% BSA, 25 C, 30 min; filter binding (nitrocellulose/nylon) as previously described; settings: protein: recombinant; tags: expressed from pET-HT; label: 5'-32P; H1 restored
# [4] = biological target: T1, Gk-S15 (ribosomal protein S15); test: filter binding; Fmax 70%; SELEX Binding Buffer A: 50 mM Tris/acetate pH 7.5, 20 mM Mg-acetate, 270 mM KCl, 5 mM DTT, 0.02% BSA, 25 C, 30 min; filter binding (nitrocellulose/nylon) as previously described; settings: protein: recombinant; tags: expressed from pET-HT; label: 5'-32P; helices H1-H3
# [5] = biological target: T2, Tt-S15 (ribosomal protein S15) (Thermus thermophilus, UniProt Q5SJ76 1-89); test: filter binding; Fmax 78%; SELEX Binding Buffer A: 50 mM Tris/acetate pH 7.5, 20 mM Mg-acetate, 270 mM KCl, 5 mM DTT, 0.02% BSA, 25 C, 30 min; filter binding (nitrocellulose/nylon) as previously described; settings: protein: recombinant; tags: expressed from pET-HT; label: 5'-32P; helices H1-H3
# [6] = biological target: T1, Gk-S15 (ribosomal protein S15); test: filter binding; Fmax 0.71; SELEX Binding Buffer A: 50 mM Tris/acetate pH 7.5, 20 mM Mg-acetate, 270 mM KCl, 5 mM DTT, 0.02% BSA, 25 C, 30 min; filter binding (nitrocellulose/nylon) as previously described; settings: protein: recombinant; tags: expressed from pET-HT; label: 5'-32P; H2 disrupted
# [7] = biological target: T1, Gk-S15 (ribosomal protein S15); test: filter binding; Fmax 79%; SELEX Binding Buffer A: 50 mM Tris/acetate pH 7.5, 20 mM Mg-acetate, 270 mM KCl, 5 mM DTT, 0.02% BSA, 25 C, 30 min; filter binding (nitrocellulose/nylon) as previously described; settings: protein: recombinant; tags: expressed from pET-HT; label: 5'-32P
# [8] = biological target: T2, Tt-S15 (ribosomal protein S15); test: filter binding; Fmax 25%; SELEX Binding Buffer A: 50 mM Tris/acetate pH 7.5, 20 mM Mg-acetate, 270 mM KCl, 5 mM DTT, 0.02% BSA, 25 C, 30 min; filter binding (nitrocellulose/nylon) as previously described; settings: protein: recombinant; tags: expressed from pET-HT; label: 5'-32P
# [9] = biological target: T1, Gk-S15 (ribosomal protein S15); test: filter binding; Fmax 0.36; SELEX Binding Buffer A: 50 mM Tris/acetate pH 7.5, 20 mM Mg-acetate, 270 mM KCl, 5 mM DTT, 0.02% BSA, 25 C, 30 min; filter binding (nitrocellulose/nylon) as previously described; settings: protein: recombinant; tags: expressed from pET-HT; label: 5'-32P
# [10] = biological target: T1, Gk-S15 (ribosomal protein S15); test: filter binding; Fmax 44%; poor 1:1 fit; SELEX Binding Buffer A: 50 mM Tris/acetate pH 7.5, 20 mM Mg-acetate, 270 mM KCl, 5 mM DTT, 0.02% BSA, 25 C, 30 min; filter binding (nitrocellulose/nylon) as previously described; settings: protein: recombinant; tags: expressed from pET-HT; label: 5'-32P
# [11] = biological target: T1, Gk-S15 (ribosomal protein S15); test: filter binding; Fmax 55%; SELEX Binding Buffer A: 50 mM Tris/acetate pH 7.5, 20 mM Mg-acetate, 270 mM KCl, 5 mM DTT, 0.02% BSA, 25 C, 30 min; filter binding (nitrocellulose/nylon) as previously described; settings: protein: recombinant; tags: expressed from pET-HT; label: 5'-32P
# [12] = biological target: T1, Gk-S15 (ribosomal protein S15); test: filter binding; Fmax 40%; SELEX Binding Buffer A: 50 mM Tris/acetate pH 7.5, 20 mM Mg-acetate, 270 mM KCl, 5 mM DTT, 0.02% BSA, 25 C, 30 min; filter binding (nitrocellulose/nylon) as previously described; settings: protein: recombinant; tags: expressed from pET-HT; label: 5'-32P
# T2 sequence (Q5SJ76 whole entry): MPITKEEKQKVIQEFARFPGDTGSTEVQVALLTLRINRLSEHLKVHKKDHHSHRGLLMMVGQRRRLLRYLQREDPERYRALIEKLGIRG
binder,measurement,setting,value
B1,Kd,[1],8.5 ± 2 nM
B2,Kd,[2],56.5 ± 5.74 nM
B3,Kd,[3],20.9 ± 6.3 nM
B4,Kd,[4],0.9 ± 0.02 nM
same,Kd,[5],94.9 ± 22.5 nM
B5,Kd,[6],84.5 ± 14.5 nM
B6,Kd,[7],9.7 ± 1.6 nM
same,Kd,[8],39 ± 6.27 nM
B7,Kd,[9],7.7 ± 5.89 nM
B8,Kd,[10],10 ± 1.4 nM
B9,Kd,[11],289 ± 121 nM
B10,Kd,[12],20.7 ± 15.2 nM
